Earlier results on one substance are cited in paper PMC10616597.

For the data set, the target named is TLR4 (Homo sapiens) (UniProt O00206).
Sequence of UniProt O00206 (O00206 24-839): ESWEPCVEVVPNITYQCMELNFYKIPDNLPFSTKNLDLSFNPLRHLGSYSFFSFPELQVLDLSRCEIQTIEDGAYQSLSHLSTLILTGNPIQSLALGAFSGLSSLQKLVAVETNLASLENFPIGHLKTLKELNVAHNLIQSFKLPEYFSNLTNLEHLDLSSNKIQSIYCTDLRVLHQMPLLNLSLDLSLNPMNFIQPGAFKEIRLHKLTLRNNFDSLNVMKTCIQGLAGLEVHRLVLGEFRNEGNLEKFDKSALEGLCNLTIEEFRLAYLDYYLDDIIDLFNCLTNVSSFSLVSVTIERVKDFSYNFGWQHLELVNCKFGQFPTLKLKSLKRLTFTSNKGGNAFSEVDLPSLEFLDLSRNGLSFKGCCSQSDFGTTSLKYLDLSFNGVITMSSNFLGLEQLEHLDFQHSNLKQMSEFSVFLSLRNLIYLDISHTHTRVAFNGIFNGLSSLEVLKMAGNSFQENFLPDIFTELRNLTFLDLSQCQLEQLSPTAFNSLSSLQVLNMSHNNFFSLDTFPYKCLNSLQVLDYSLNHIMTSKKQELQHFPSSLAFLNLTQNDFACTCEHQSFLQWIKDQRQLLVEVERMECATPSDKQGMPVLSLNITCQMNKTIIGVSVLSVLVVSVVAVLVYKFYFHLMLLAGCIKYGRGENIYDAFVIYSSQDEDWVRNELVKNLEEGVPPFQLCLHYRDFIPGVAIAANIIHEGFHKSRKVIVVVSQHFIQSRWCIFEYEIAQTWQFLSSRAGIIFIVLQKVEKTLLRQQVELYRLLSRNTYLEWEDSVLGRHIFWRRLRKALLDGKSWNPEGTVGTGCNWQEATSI

A word on the Kd: it is the concentration at which binding is half-saturated. On to eNAMPT (from UniProt P43490), for which the Kd is 18 nM.
